Values belong to the compound of their own block, whether it stands above or below them. Numbered stars: 1 amine (or outer) side, 2 acyl side, 3 side chain; on linkers, the order of the positions; unused ones are H or OH. Square brackets hold non-standard residues; d marks the D form. Peptide text beside a SMILES is read from it. * marks the point of attachment. DOTA = O=C(O)CN1CCN(CC(=O)O)CCN(CC(=O)*)CCN(CC(=O)O)CC1; γGlu = O=C(O)[CH](CCC(=O)[*:2])N[*:1]; X3 = O=C(C1CCC(CN[*:1])CC1)[*:2]; CO = O=C([*:1])[*:2]; Ahx = NCCCCCC(=O)O
Tests used:
[1] = test system: PSMA-expressing cancer tissue; experiment: Standard uptake values (SUVs) by PET and blood clearance, general statements; format: in vivo; settings: PET
Experimental: The term “standardized uptake value (SUV)” refers to a measure of radioactivity in a specific area of interest relative to an idealized even distribution of radioactive material throughout the body. SUV is used historically by nuclear medicine professionals to distinguish between “normal” and “abnormal” levels of uptake. Preferably, uptake is measured by positron emission tomography (PET) imaging or other imaging modalities.
The PSMA targeted compounds described herein include a PSMA ligand, e.g., PSMA-1, conjugated to a metal chelating agent or chelated metal nuclide. The PSMA targeted compounds described herein can selectively recognize PSMA-expressing tumors, cancer cells, and/or cancer neovasculature in vivo and be used to deliver at least one chelated metal nuclide, such as radionuclide, to the PSMA-expressing tumors, cancer cells, and/or cancer neovasculature to treat and/or detect the PSMA-expressing tumors, cancer cells, and/or cancer neovasculature in a subject. The PSMA ligand can target and/or increase the uptake of the metal chelating agent or chelated metal nuclide in PSMA expressing cancer cells compared to untargeted metal chelated agents or chelated metal nuclides administered to a subject and decrease non-PSMA target toxicity of the metal nuclide administered (e.g., systemically) to a subject.

[2] = target: T1, PSMA (Homo sapiens, UniProt Q04609); experiment: Competition binding assay using [3H]-ZJ24 with PC3pip cells; settings: approximately, compared to PSMA-11, PSMA I&T and ZJ24 ligands, FIG. 3
T1 construct: expressed in transfected cells; host or cells: PC3pip cells
T1 sequence (Q04609 whole entry): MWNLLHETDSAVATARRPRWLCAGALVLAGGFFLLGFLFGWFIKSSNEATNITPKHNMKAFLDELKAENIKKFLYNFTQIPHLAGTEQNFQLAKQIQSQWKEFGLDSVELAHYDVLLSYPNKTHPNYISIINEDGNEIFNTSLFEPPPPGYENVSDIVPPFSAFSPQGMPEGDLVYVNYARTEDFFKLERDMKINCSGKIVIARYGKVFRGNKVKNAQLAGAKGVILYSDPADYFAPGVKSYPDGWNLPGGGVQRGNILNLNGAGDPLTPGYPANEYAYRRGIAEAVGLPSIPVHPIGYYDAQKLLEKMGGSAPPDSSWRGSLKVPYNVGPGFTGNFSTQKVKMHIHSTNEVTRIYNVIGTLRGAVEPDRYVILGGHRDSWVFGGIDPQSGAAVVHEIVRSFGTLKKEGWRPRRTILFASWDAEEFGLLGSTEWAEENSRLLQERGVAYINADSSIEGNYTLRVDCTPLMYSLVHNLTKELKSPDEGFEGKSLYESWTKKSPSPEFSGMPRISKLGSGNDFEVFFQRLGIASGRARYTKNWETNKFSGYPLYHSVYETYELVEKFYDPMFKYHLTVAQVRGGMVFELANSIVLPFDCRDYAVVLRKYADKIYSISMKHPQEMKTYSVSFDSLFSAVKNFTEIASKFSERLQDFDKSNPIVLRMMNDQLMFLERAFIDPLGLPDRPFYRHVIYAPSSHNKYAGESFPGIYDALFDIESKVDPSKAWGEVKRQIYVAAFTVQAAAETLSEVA
Description: We first conjugated a macrocyclic DOTA to our PSMA-1 ligand enabling us to label it with [^68Ga]. We then compared the macrocyclic-conjugated PSMA-1 ligand to PSMA-11 ligand, PSMA I&T ligand, and ZJ24 ligand in a competitive radio-binding assay using [^3H]-ZJ24 with PC3pip cells. FIG. 3 illustrates that the PSMA-1 ligand conjugated to DOTA, the PSMA-1 ligand has approximately 4-5 fold higher affinity for PSMA.

[3] = Stability assay: incubation in plasma or PBS, HPLC; format: in vitro ADME; settings: 100% mouse plasma, PBS or 100% human plasma at 37° C., for 7 days
Experimental: (§1) PSMA-1-DOTA was incubated in 100% mouse Plasma, PBS, or 100% human plasma at 37° C. […] And stability has been monitored and confirmed for at least 7 days frozen in isotonic sterile saline.

[4] = In vivo PET imaging in healthy animals without tumor; design: species or system mice
Experimental: We compared the [^68Ga]-PSMA-11 and the [^68Ga]-PSMA-1-DOTA ligand in healthy animals without tumor. Equal doses of radioactivity were injected into the same animal (a single animal was used to limit variability). We injected the [^68Ga]-PSMA-1-DOTA first to prevent blockade of its binding by the other ligand, waited 24 hours and then injected the other radiolabeled ligand.

[5] = Storage stability (lyophilized powder; frozen in saline); format: physicochemical
Experimental: as §1

[6] = test system: PC3pip tumors that overexpress PSMA; experiment: In vivo PET imaging in animals harboring PC3pip tumors
Description: We also made a similar comparison using animals harboring PC3pip tumors that overexpress PSMA.

[7] = PC3pip tumor bearing animals, PET

SMILES: NC(=O)C(CCCCNC(=O)CN1CCN(CC(=O)O)CCN(CC(=O)O)CCN(CC(=O)O)CC1)NC(=O)C(Cc1ccc(O)cc1)NC(=O)C(CCC(=O)O)NC(=O)C(CCC(=O)O)NC(=O)C(CCC(=O)O)NC(=O)CCCCCNC(=O)CCC(NC(=O)NC(CCC(=O)O)C(=O)O)C(=O)O (stereo not shown) [JB-1498] ({Glu-CO-γGlu-Ahx}-EEEYK(DOTA)-NH2; configuration not given here)
SUVs in salivary glands, lacrimal glands and non-PSMA expressing muscle tissue versus SUVs in PSMA-expressing cancer [1]: substantially lower SUVs

higher affinity for PSMA [2]: 4-5 fold
SMILES: NC(=O)C(CCCCNC(=O)CN1CCN(CC(=O)O)CCN(CC(=O)O)CCN(CC(=O)O)CC1)NC(=O)C(CCC(=O)O)NC(=O)C(CCC(=O)O)NC(=O)C(CCC(=O)O)NC(=O)CCCCCNC(=O)C1CCC(CNC(=O)CCC(NC(=O)NC(CCC(=O)O)C(=O)O)C(=O)O)CC1 (stereo not shown) [PSMA-1-DOTA] ({Glu-CO-γGlu}-[X3][Ahx]EEEK(DOTA)-NH2; configuration not given here)
degradation/purity by HPLC [3]: No decline in the product | renal clearance ([4]; mouse, in vivo): faster renal clearance | renal retention of the probe ([4]; mouse, in vivo): less renal retention | stability frozen in isotonic sterile saline ([5]; frozen): at least 7 days | stability as a lyophilized powder ([5]; long term storage): stability for long term storage | SUVs in salivary glands, lacrimal glands and non-PSMA expressing muscle tissue versus SUVs in PSMA-expressing cancer [1]: substantially lower SUVs

SMILES: NC(=O)[C@H](CCCCNC(=O)CN1CCN(CC(=O)O)CCN(CC(=O)O)CCN(CC(=O)O)CC1)NC(=O)[C@@H](CCC(=O)O)NC(=O)[C@@H](CCC(=O)O)NC(=O)[C@@H](CCC(=O)O)NC(=O)CCCCCNC(=O)C1CCC(CNC(=O)CC[C@H](NC(=O)N[C@@H](CCC(=O)O)C(=O)O)C(=O)O)CC1 (stereo partly shown) [[^68Ga]-PSMA-1-DOTA, metal not drawn] ({Glu-CO-γGlu}-[X3][Ahx][dE][dE][dE]K(DOTA)-NH2)
kidney uptake ([6]; mouse, in vivo): less kidney uptake | uptake into salivary glands ([6]; mouse, in vivo): no uptake | uptake in the salivary glands ([4]; mouse, in vivo): none

SMILES: O=C([O-])CN(CCN(CC(=O)[O-])Cc1cc(CCC(=O)NCCCCCC(=O)NCCCC[C@H](NC(=O)N[C@@H](CCC(=O)O)C(=O)O)C(=O)O)ccc1[O-])Cc1cc(CCC(=O)O)ccc1[O-].[68Ga+3].[OH3+] [[^68Ga]-PSMA-11]
kidney uptake [6, 7]: significant uptake | uptake in the PC3pip tumor [6, 7]: significant uptake | uptake into lacrimal glands [6, 7]: significant uptake | uptake into salivary glands [6, 7]: significant uptake | uptake in the salivary glands ([4]; healthy animals without tumor, equal doses of radioactivity, PET): significant uptake

— US11998620B2, “PSMA targeted compounds and uses thereof” (CASE WESTERN RESERVE UNIVERSITY, priority 2021, dated 2024)
